T1: CXCR1 (Homo sapiens, UniProt P25024)
T1 sequence (P25024 1-350): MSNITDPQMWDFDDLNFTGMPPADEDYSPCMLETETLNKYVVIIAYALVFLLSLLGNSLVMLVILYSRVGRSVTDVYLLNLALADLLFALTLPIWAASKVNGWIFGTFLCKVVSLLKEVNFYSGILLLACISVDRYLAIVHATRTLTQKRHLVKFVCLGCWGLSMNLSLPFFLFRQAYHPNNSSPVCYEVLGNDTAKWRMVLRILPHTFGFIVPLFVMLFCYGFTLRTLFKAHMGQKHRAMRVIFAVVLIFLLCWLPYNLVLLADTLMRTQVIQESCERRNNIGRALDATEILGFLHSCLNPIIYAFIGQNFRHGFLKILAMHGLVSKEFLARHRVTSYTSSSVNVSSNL

T2: DARC (Homo sapiens, UniProt Q16570)
T2 construct: expressed in transfected cells; host or cells: HEK293T
T2 sequence (Q16570 1-336): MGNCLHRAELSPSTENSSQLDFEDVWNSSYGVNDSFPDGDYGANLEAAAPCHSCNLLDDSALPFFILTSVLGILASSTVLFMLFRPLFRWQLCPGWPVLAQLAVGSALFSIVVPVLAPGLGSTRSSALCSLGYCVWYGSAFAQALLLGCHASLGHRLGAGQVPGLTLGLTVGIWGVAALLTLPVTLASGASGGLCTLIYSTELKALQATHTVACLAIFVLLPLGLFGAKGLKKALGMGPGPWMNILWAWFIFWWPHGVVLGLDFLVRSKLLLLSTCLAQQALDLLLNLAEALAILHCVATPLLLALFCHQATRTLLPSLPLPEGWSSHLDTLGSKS

T3: CXCR2 (Homo sapiens, UniProt P25025)
T3 sequence (P25025 1-360): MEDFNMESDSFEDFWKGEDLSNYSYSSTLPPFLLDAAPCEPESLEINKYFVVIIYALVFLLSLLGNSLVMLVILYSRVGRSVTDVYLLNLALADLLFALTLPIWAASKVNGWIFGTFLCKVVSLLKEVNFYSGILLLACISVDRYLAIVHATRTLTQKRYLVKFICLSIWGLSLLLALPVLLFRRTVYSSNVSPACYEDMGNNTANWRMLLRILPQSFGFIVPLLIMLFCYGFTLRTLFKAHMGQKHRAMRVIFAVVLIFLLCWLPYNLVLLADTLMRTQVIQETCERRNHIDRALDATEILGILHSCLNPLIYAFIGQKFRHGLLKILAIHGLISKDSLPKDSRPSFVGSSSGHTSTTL


Columns and labels:
[1] = system: PMNs; assay: Ex vivo infection of PMNs with toxin-producing S. aureus strains; format: cell-based, human; details: multiplicity of infection of 10
Procedure: Ex vivo infection experiments. S. aureus strains containing either the pOS1-plukA-lukAs.s.-6×His vector construct containing either no toxin (empty), lukED or lukE^DR4D were subcultured for 4.5 hours, followed by normalization to 1×10^9 CFU per ml in RPMI+10% FBS. Cells were diluted 1:10 and 20 μl were added to 80 μl of media containing 2×10^5 PMNs seeded into 96-well plates. Infections were carried out for 3.5 hours at 37° C. with shaking at 180 RPM. 2 μg ml-1 of lysostaphin was added for 20 minutes at 37° C. with shaking at 180 RPM to kill all bacteria. Cells were centrifuged for 5 minutes at 1,500 RPM and 4° C., followed by fixing in FACS fixing buffer (PBS+2% FBS+2% paraformaldehyde+0.05% sodium azide). To analyze toxin mediated killing by flow cytometry, cellular depletion from gated live cells was evaluated. Percent cell death was calculated by comparing cells remaining in the live gate to that of Newman ΔΔΔΔ strain containing the empty pOS1-plukA modified empty vector (no toxin), which was set to 0% dead.

[2] = system: human PMNs; assay: Viability of PMNs challenged with a lethal dose of LukED in the presence of chemokines; format: cell-based; details: LukED 75 nM
[3] = system: human PMNs; assay: Viability of primary human neutrophils (PMNs) treated with leukotoxins; format: cell-based
[4] = molecular target: T1, CXCR1; assay: Toxin susceptibility of HEK293T cells transfected with chemokine receptor CXCR1; format: cell-based; design: expressed in transfected cells; host or cells: HEK293T; details: viability (600 nM) or ethidium bromide permeability (1 hr; HlgAB/HlgCB 20 μg/ml)
[5] = system: human RBCs; assay: LukED-mediated lysis of human red blood cells; format: cell-based; details: RBCs from nine donors, DARC+ and DARC−
[6] = system: murine peritoneal exudate cells (PMNs, CCR5^+ macrophages); assay: Killing of murine peritoneal exudate cells (PEC) by toxins in vitro; format: cell-based, mouse; details: 300 nM
Procedure: Murine in vitro and in vivo experiments. To evaluate LukED-mediated killing of murine cells in vitro, C57BL/6 WT mice (Taconic) were injected intraperitoneally with 1×10^7 CFU of heatkilled S. aureus Newman ΔlukED. Twenty-four hours post injection, another dose of 1×10^7 CFU of heat-killed S. aureus Newman ΔlukED was injected as before. After an additional twenty-four hours, mice were sacrificed and immune cells were collected by peritoneal cavity lavage using 8 ml of PBS. Red blood cells were lysed using 2 ml ACK lysis buffer (Gibco) followed by resuspension of remaining peritoneal exudate cells in RPMI+10% FBS. Cells were incubated with PBS, LukED or LukE^DR4D (300 nM) and incubated for 30 minutes on ice. After incubation, the cells were washed three times with PBS then stained with the fixable viability dye eFluor-450, followed by cell surface staining with CD11b, B220, F480, CD3, Ly6G, CCR5 and CXCR2 antibodies. Cell viability of specific immune cell populations was subsequently analyzed on an LSRII flow cytometer (BD). FACS plots are representative of results obtained from cells isolated from at least 3 independent animals.

[7] = molecular target: T2, DARC; assay: Toxin susceptibility of HEK293T cells transfected with DARC; format: cell-based; details: ethidium bromide permeability (1 hr; HlgAB/HlgCB 20 μg/ml)
[8] = system: THP-1 cells; assay: Viability of THP-1 cells transduced with non-target or Cxcr2 shRNA treated with LukED; format: cell-based, human; details: Cxcr2 shRNA versus non-target shRNA
Procedure: (§1) Cell culture conditions and viral transductions. Primary human cells and THP-1 were cultured at 37° C. with 5% CO2 in RPMI supplemented with 10% fetal bovine serum (FBS; Atlanta Biologicals) and penicillin (100 U ml-1) and streptomycin (0.1 mg ml-1) (Mediatech) unless stated otherwise. Overexpression and lentiviral-based knockdown of Cxcr2 or non-target shRNA were performed as previously described (Wan et al., “Cytokine Signals Through PI-3 Kinase Pathway Modulate Th17 Cytokine Production by CCR6+ Human Memory T Cells,” J. Exp. Med. 208:1875-1887 (2011), which is hereby incorporated by reference in its entirety) and maintained in 1.3 μg ml-1 puromycin. HEK293T cells were cultured at 37° C. with 5% CO2 in DMEM (Cellgro) and supplemented as described above.
(§2) Leukotoxin treatments. HEK293T cells, THP-1, primary human PBMCs and primary murine peritoneal exudate cells were treated with LukE, LukD or LukED as previously described (Alonzo et al., “CCR5 is a Receptor for Staphylococcus aureus Leukotoxin ED,” Nature 493:51-55 (2013), which is hereby incorporated by reference in its entirety). In all experiments 1-2×10^5 cells were seeded into 96-well plates. […]

[9] = system: mice; assay: Survival of mice upon bloodstream (intravenous) administration of purified toxin; format: in vivo, mouse; details: intravenous injection, 10 μg of each subunit, n=5
[10] = molecular target: T3, CXCR2; assay: Toxin susceptibility of HEK293T cells transfected with chemokine receptor CXCR2; format: cell-based; design: expressed in transfected cells; host or cells: HEK293T; details: viability (600 nM) or ethidium bromide permeability (1 hr; HlgAB/HlgCB 20 μg/ml)
Procedure: as §1, §2

[11] = system: PBMC subsets (NK cells, CD8^+ T cells, monocytes); assay: Susceptibility of PBMC subsets to toxins, flow cytometry; format: cell-based, human
Procedure: (§3) Isolation of PBMCs. Blood was obtained as buffy coats with the consent of de-identified donors from the New York Blood Center. PBMCs were isolated from blood using a Ficoll-Paque PLUS gradient (GE Amersham) and gated on CCR5^+ cells, followed by anti-CD3 and CD14 cell surface staining for lymphocyte and monocyte populations. Cells were then incubated with LukED (75 nM) in the presence or absence of maraviroc (MVC, 100 ng ml-1).
(§4) FACS analysis. Cell staining was performed as described previously (Alonzo et al., “CCR5 is a Receptor for Staphylococcus aureus Leukotoxin ED,” Nature 493:51-55 (2013), which is hereby incorporated by reference in its entirety). FACS data were obtained using FACSDiva software on a LSRII flow cytometer (BD Biosciences). Data was analyzed using FlowJo software (Treestar).
as §2

[12] = molecular target: T4, CCR5 (Homo sapiens, UniProt P51681); assay: Toxin susceptibility of HEK293T cells transfected with CCR5; format: cell-based; details: ethidium bromide permeability (1 hr; HlgAB 20 μg/ml)
T4 construct: expressed in transfected cells; host or cells: HEK293T

[13] = system: monocytes within PBMCs; assay: LukED treatment of human PBMCs, CD14/CD3 flow cytometry; format: cell-based; details: PBMCs from a Δ32Ccr5 donor; LukED 75 nM
Procedure: as §3
CCR5 inhibitor and ligands. Maraviroc was obtained through the AIDS Research and Reference Reagent Program, Division of AIDS (NIAID, NIH) and used at a final concentration of 100 ng ml-1.
as §4, §2

T4 sequence (P51681 whole entry): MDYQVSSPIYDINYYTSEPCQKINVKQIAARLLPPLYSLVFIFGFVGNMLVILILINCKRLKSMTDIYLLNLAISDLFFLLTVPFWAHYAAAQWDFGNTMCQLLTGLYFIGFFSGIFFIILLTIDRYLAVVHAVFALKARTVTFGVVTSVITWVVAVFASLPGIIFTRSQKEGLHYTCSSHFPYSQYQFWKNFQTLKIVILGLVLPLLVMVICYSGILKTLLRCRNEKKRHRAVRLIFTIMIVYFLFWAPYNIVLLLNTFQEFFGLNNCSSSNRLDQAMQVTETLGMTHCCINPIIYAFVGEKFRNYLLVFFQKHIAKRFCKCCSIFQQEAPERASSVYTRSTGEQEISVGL

Row | Molecule | inhibition of cytotoxic activity of the LukED-producing S. aureus strain on PMNs [1] | prevention of LukED-mediated death of PMNs [2] | cytotoxic activity against hPMNs ([3]; LukE or alanine mutant mixed equimolar with LukD, n=8 donors) | susceptibility of PMNs to toxin (viability) ([3]; PMNs from Ccr5+/+ and Δ32Ccr5 donors, 75 nM) | susceptibility of CXCR1-transfected HEK293T cells to toxin [4] | hemolysis of human RBCs [5] | susceptibility of murine CCR5+ macrophages [6] | murine PMNs killed ([6]; 30 minutes on ice) | susceptibility of DARC-transfected HEK293T cells to toxin [7] | LukED killing of THP-1 cells after CXCR2 knockdown [8] | lethality in mice [9] | susceptibility of CXCR2-transfected HEK293T cells to toxin [10] | cytotoxicity to NK cells and CD8+ T cells in PBMCs [11] | susceptibility of CCR5-transfected HEK293T cells to toxin [12] | LukED targeting of monocytes [13]
1 | CXCL8: chemokine ligand of CXCR1/CXCR2, obtained from BioLegend | inhibited by CXCL8 | prevented LukED-mediated death of PMNs | – | – | – | – | – | – | – | – | – | – | – | – | –
2 | LukED: S. aureus bicomponent pore-forming leukotoxin leukocidin E/D, LukE plus LukD subunits (protein, left off: small tags and cut ends, S. aureus bicomponent pore-forming leukotoxin leukocidin E/D, LukE plus LukD subunits) chain 1: NTNIENIGDGAEVIKRTEDVSSKKWGVTQNVQFDFVKDKKYNKDALIVKMQGFINSRTSFSDVKGSGYELTKRMIWPFQYNIGLTTKDPNVSLINYLPKNKIETTDVGQTLGYNIGGNFQSAPSIGGNGSFNYSKTISYTQKSYVSEVDKQNSKSVKWGVKANEFVTPDGKKSAHDRYLFVQSPNGPTGSAREYFAPDNQLPPLVQSGFNPSFITTLSHEKGSSDTSEFEISYGRNLDITYATLFPRTGIYAERKHNAFVNRNFVVRYEVNWKTHEIKVKGHN chain 2: AQHITPVSEKKVDDKITLYKTTATSDNDKLNISQILTFNFIKDKSYDKDTLVLKAAGNINSGYKKPNPKDYNYSQFYWGGKYNVSVSSESNDAVNVVDYAPKNQNEEFQVQQTLGYSYGGDINISNGLSGGLNGSKSFSETINYKQESYRTTIDRKTNHKSIGWGVEAHKIMNNGWGPYGRDSYDPTYGNELFLGGRQSSSNAGQNFLPTHQMPLLARGNFNPEFISVLSHKQNDTKKSKIKVTYQREMDRYTNQWNRLHWVGNNYKNQNTVTFTSTYEVDWQNHTVKLIGTDSKETNPGV | – | – | targeted and killed the hPMNs | equally susceptible to LukED | sufficient to render HEK293T cells susceptible | some donors were susceptible to LukED hemolysis while others were not | equally susceptible to both LukED and LukE^DR4D | ~79% | sufficient to render HEK293T cells susceptible | rendered cells resistant to LukED killing | rapid death | sufficient to render HEK293T cells susceptible | cytotoxic to the majority of NK cells and a subset of CD8^+ T cells | targets CCR5, CXCR1, CXCR2, and DARC to kill host cells | targeted in a LukED-mediated, CCR5-independent manner
